Reference: patent US20030186853A1, “Novel corticotropin-releasing hormone analogs” (The Regents of the University of California, Office of …, published 2003)
Where two headings read alike, the source gives them in different places. Non-standard residues stand in square brackets, D forms with d. No end group written: not given here.

How the values were obtained:
CRH1 receptor [1] = biological target: T1, CRH1 receptor (mouse, UniProt P35347)
CRH1 receptor [2] = biological target: T1, CRH1 receptor; test: cell-based or functional assay

| Molecule | EC50, inhibition of proliferation of Cloudman melanoma cells (cell count) (CRH1 receptor [1]) [picomolar] | EC50, inhibition of proliferation of Cloudman melanoma cells (cell count) (CRH1 receptor [2]) [picomolar] |
| --- | --- | --- |
| SEEPPISLDLTFHLLREVL[dE]MARAEQLAQQAHSNRKLMEII-NH2 [[D-Glu^20]-CRH] |  | 16 |
| DNPSLSIDLTFHLLRTLLELARTQSQRERAEQNRIIFDSV-NH2 (ligand) [Urocortin (human)] |  | 9.5 |

Other lines, results leading:

| EC50, inhibition of proliferation of Cloudman melanoma cells (cell count) (CRH1 receptor [1]) [picomolar] | EC50, inhibition of proliferation of Cloudman melanoma cells (cell count) (CRH1 receptor [2]) [picomolar] | Molecule |
| --- | --- | --- |
| 0.36 |  | acetyl-cyclo(30-33)[D-Phe^12, Nle^18, D-Glu^20, Nle^21, Glu^30, D-Ala^32]-urotensin I(4-41) (peptide) |
|  | 82 | SEEP[dP]ISLDLTFHLLREVLEMARAEQLAQQAHSNRKLMEII-NH2 [[D-Pro^5]-CRH] |
|  | 8.6 | SEEPPISLDLTFHLLREVLEMARAEQLAQQAHSNRKLMEII-NH2 (ligand) [Corticotropin-releasing hormone (CRH), human/rat] |
